Source: article doi:10.1101/2025.10.06.680828 (bioRxiv, 2025)

B1: human Drp1 isoform 8 (natural protein)
chain: MEALIPVINKLQDVFNTVGADIIQLPQIVVVGTQSSGKSSVLESLVGRDLLPRGTGIVTRRPLILQLVHVSQEDKRKTTGEENDPATWKNSRHLSKGVEAEEWGKFLHTKNKLYTDFDEIRQEIENETERISGNNKGVSPEPIHLKIFSPNVVNLTLVDLPGMTKVPVGDQPKDIELQIRELILRFISNPNSIILAVTAANTDMATSEALKISREVDPDGRRTLAVITKLDLMDAGTDAMDVLMGRVIPVKLGIIGVVNRSQLDINNKKSVTDSIRDEYAFLQKKYPSLANRNGTKYLARTLNRLLMHHIRDCLPELKTRINVLAAQYQSLLNSYGEPVDDKSATLLQLITKFATEYCNTIEGTAKYIETSELCGGARICYIFHETFGRTLESVDPLGGLNTIDILTAIRNATGPRPALFVPEVSFELLVKRQIKRLEEPSLRCVELVHEEMQRIIQHCSNYSTQELLRFPKLHDAIVEVVTCLLRKRLPVTNEMVHNLVAIELAYINTKHPDFADACGLMNNNIEEQRRNRLARELPSAVSRDKVASGGGGVGDGVQEPTTGNWRGMLKTSKAEELLAEEKSKPIPIMPASPQKGHAVNLLDVPVPVARKLSAREQRDCEVIERLIKSYFLIVRKNIQDSVPKAVMHFLVNHVKDTLQSELVGQLYKSSLLDDLLTESEDMAQRRKEAADMLKALQGASQIIAEIRETHLW
B2: human Drp1 isoform 3 (natural protein)
chain: MEALIPVINKLQDVFNTVGADIIQLPQIVVVGTQSSGKSSVLESLVGRDLLPRGTGIVTRRPLILQLVHVSQEDKRKTTGEENGVEAEEWGKFLHTKNKLYTDFDEIRQEIENETERISGNNKGVSPEPIHLKIFSPNVVNLTLVDLPGMTKVPVGDQPKDIELQIRELILRFISNPNSIILAVTAANTDMATSEALKISREVDPDGRRTLAVITKLDLMDAGTDAMDVLMGRVIPVKLGIIGVVNRSQLDINNKKSVTDSIRDEYAFLQKKYPSLANRNGTKYLARTLNRLLMHHIRDCLPELKTRINVLAAQYQSLLNSYGEPVDDKSATLLQLITKFATEYCNTIEGTAKYIETSELCGGARICYIFHETFGRTLESVDPLGGLNTIDILTAIRNATGPRPALFVPEVSFELLVKRQIKRLEEPSLRCVELVHEEMQRIIQHCSNYSTQELLRFPKLHDAIVEVVTCLLRKRLPVTNEMVHNLVAIELAYINTKHPDFADACGLMNNNIEEQRRNRLARELPSAVSRDKVASGGGGVGDGVQEPTTGNWRGMLKTSKAEELLAEEKSKPIPIMPASPQKGHAVNLLDVPVPVARKLSAREQRDCEVIERLIKSYFLIVRKNIQDSVPKAVMHFLVNHVKDTLQSELVGQLYKSSLLDDLLTESEDMAQRRKEAADMLKALQGASQIIAEIRETHLW
B3: human Drp1 isoform 4 (natural protein)
chain: MEALIPVINKLQDVFNTVGADIIQLPQIVVVGTQSSGKSSVLESLVGRDLLPRGTGIVTRRPLILQLVHVSQEDKRKTTGEENGVEAEEWGKFLHTKNKLYTDFDEIRQEIENETERISGNNKGVSPEPIHLKIFSPNVVNLTLVDLPGMTKVPVGDQPKDIELQIRELILRFISNPNSIILAVTAANTDMATSEALKISREVDPDGRRTLAVITKLDLMDAGTDAMDVLMGRVIPVKLGIIGVVNRSQLDINNKKSVTDSIRDEYAFLQKKYPSLANRNGTKYLARTLNRLLMHHIRDCLPELKTRINVLAAQYQSLLNSYGEPVDDKSATLLQLITKFATEYCNTIEGTAKYIETSELCGGARICYIFHETFGRTLESVDPLGGLNTIDILTAIRNATGPRPALFVPEVSFELLVKRQIKRLEEPSLRCVELVHEEMQRIIQHCSNYSTQELLRFPKLHDAIVEVVTCLLRKRLPVTNEMVHNLVAIELAYINTKHPDFADACGLMNNNIEEQRRNRLARELPSAVSRDKSSKVPSALAPASQEPSPAASAEADGKVASGGGGVGDGVQEPTTGNWRGMLKTSKAEELLAEEKSKPIPIMPASPQKGHAVNLLDVPVPVARKLSAREQRDCEVIERLIKSYFLIVRKNIQDSVPKAVMHFLVNHVKDTLQSELVGQLYKSSLLDDLLTESEDMAQRRKEAADMLKALQGASQIIAEIRETHLW
B4: human Drp1 isoform 6 (natural protein)
chain: MEALIPVINKLQDVFNTVGADIIQLPQIVVVGTQSSGKSSVLESLVGRDLLPRGTGIVTRRPLILQLVHVSQEDKRKTTGEENDPATWKNSRHLSKGVEAEEWGKFLHTKNKLYTDFDEIRQEIENETERISGNNKGVSPEPIHLKIFSPNVVNLTLVDLPGMTKVPVGDQPKDIELQIRELILRFISNPNSIILAVTAANTDMATSEALKISREVDPDGRRTLAVITKLDLMDAGTDAMDVLMGRVIPVKLGIIGVVNRSQLDINNKKSVTDSIRDEYAFLQKKYPSLANRNGTKYLARTLNRLLMHHIRDCLPELKTRINVLAAQYQSLLNSYGEPVDDKSATLLQLITKFATEYCNTIEGTAKYIETSELCGGARICYIFHETFGRTLESVDPLGGLNTIDILTAIRNATGPRPALFVPEVSFELLVKRQIKRLEEPSLRCVELVHEEMQRIIQHCSNYSTQELLRFPKLHDAIVEVVTCLLRKRLPVTNEMVHNLVAIELAYINTKHPDFADACGLMNNNIEEQRRNRLARELPSAVSRDKSSKVPSALAPASQEPSPAASAEADGKVASGGGGVGDGVQEPTTGNWRGMLKTSKAEELLAEEKSKPIPIMPASPQKGHAVNLLDVPVPVARKLSAREQRDCEVIERLIKSYFLIVRKNIQDSVPKAVMHFLVNHVKDTLQSELVGQLYKSSLLDDLLTESEDMAQRRKEAADMLKALQGASQIIAEIRETHLW
B5: human Drp1 isoform 5 (natural protein)
chain: MEALIPVINKLQDVFNTVGADIIQLPQIVVVGTQSSGKSSVLESLVGRDLLPRGTGIVTRRPLILQLVHVSQEDKRKTTGEENDPATWKNSRHLSKGVEAEEWGKFLHTKNKLYTDFDEIRQEIENETERISGNNKGVSPEPIHLKIFSPNVVNLTLVDLPGMTKVPVGDQPKDIELQIRELILRFISNPNSIILAVTAANTDMATSEALKISREVDPDGRRTLAVITKLDLMDAGTDAMDVLMGRVIPVKLGIIGVVNRSQLDINNKKSVTDSIRDEYAFLQKKYPSLANRNGTKYLARTLNRLLMHHIRDCLPELKTRINVLAAQYQSLLNSYGEPVDDKSATLLQLITKFATEYCNTIEGTAKYIETSELCGGARICYIFHETFGRTLESVDPLGGLNTIDILTAIRNATGPRPALFVPEVSFELLVKRQIKRLEEPSLRCVELVHEEMQRIIQHCSNYSTQELLRFPKLHDAIVEVVTCLLRKRLPVTNEMVHNLVAIELAYINTKHPDFADACGLMNNNIEEQRRNRLARELPSAVSRDKSSKVPSALAPASQEPSPAASAEADGKLIQDSRRETKNVASGGGGVGDGVQEPTTGNWRGMLKTSKAEELLAEEKSKPIPIMPASPQKGHAVNLLDVPVPVARKLSAREQRDCEVIERLIKSYFLIVRKNIQDSVPKAVMHFLVNHVKDTLQSELVGQLYKSSLLDDLLTESEDMAQRRKEAADMLKALQGASQIIAEIRETHLW
B6: human Drp1 isoform 2 (natural protein)
chain: MEALIPVINKLQDVFNTVGADIIQLPQIVVVGTQSSGKSSVLESLVGRDLLPRGTGIVTRRPLILQLVHVSQEDKRKTTGEENGVEAEEWGKFLHTKNKLYTDFDEIRQEIENETERISGNNKGVSPEPIHLKIFSPNVVNLTLVDLPGMTKVPVGDQPKDIELQIRELILRFISNPNSIILAVTAANTDMATSEALKISREVDPDGRRTLAVITKLDLMDAGTDAMDVLMGRVIPVKLGIIGVVNRSQLDINNKKSVTDSIRDEYAFLQKKYPSLANRNGTKYLARTLNRLLMHHIRDCLPELKTRINVLAAQYQSLLNSYGEPVDDKSATLLQLITKFATEYCNTIEGTAKYIETSELCGGARICYIFHETFGRTLESVDPLGGLNTIDILTAIRNATGPRPALFVPEVSFELLVKRQIKRLEEPSLRCVELVHEEMQRIIQHCSNYSTQELLRFPKLHDAIVEVVTCLLRKRLPVTNEMVHNLVAIELAYINTKHPDFADACGLMNNNIEEQRRNRLARELPSAVSRDKLIQDSRRETKNVASGGGGVGDGVQEPTTGNWRGMLKTSKAEELLAEEKSKPIPIMPASPQKGHAVNLLDVPVPVARKLSAREQRDCEVIERLIKSYFLIVRKNIQDSVPKAVMHFLVNHVKDTLQSELVGQLYKSSLLDDLLTESEDMAQRRKEAADMLKALQGASQIIAEIRETHLW

Molecular target: the molecule itself
Test: mass photometry

Protein | stoichiometry N
B1 | 2
B2 | 2
B3 | 2
B4 | 2
B5 | 2
B6 | 2
